Measured values taken from the RNAGym collection of RNA variant scans (doi:10.1073/pnas.2313332121).
Fewer inactive variants are shown than the library holds.

B1: TPR 5TU (parent)
chain: GGAUCUUCUCGAUCUAACAAAAAAGACAAAUCUGCCACAAAGCUUGAGAGCAUCUUCGGAUGCAGAGGCGGCAGCCUUCGGUGGCGCGAUAGCGCCAACGUUCUCAACUAUGACACGCAAAACGCGUGCUCCGUUGAAUGGAGUUUAUCAUG

Variants of: B1
Experiment: polymerase ribozyme fitness, log enrichment relative to wild type (log ratio); higher = more active; in vitro selection for triplet polymerase activity
How it was run: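 The heterodimeric triplet polymerase ribozyme's subunits were each mutagenized into PCR-built libraries and transcribed. Every library was selected once, in triplicate, by annealing with a biotinylated primer, the partner subunit and triplets, incubating frozen at −7 °C, gel-excising extended constructs, capturing on streptavidin beads and running RT-PCR. Input and output libraries were Illumina-sequenced, with genotypes kept only at ≥10 input reads and ≥1 read per output. Fitness, from inverse-variance-weighted replicate averages, is the base-2 logarithm of genotype enrichment over wild-type enrichment.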

Row | Variant | polymerase ribozyme fitness (log ratio)
1 | A39C G86U A91C A150U | ≤ -4.2
2 | U6G U9G U31A G48A C76G C87A U111C G140U | ≤ -4.2
3 | G59C G86C | -3.39
4 | U33A A98G G124C | ≤ -4.2
5 | A20U A30U A39U G62A G68A G140U | ≤ -4.2
6 | A41C U53A G58A C63U G94A A107G | ≤ -4.2
7 | A23U C43U A73U C85A A97C C105G G140U | ≤ -4.2
8 | G46A G92A | -2.92
9 | C35G A52G C96U G140U | -4.08
10 | U15C C85U | -0.718
11 | A26C U78C | -3.76
12 | A49C C87U U151G | ≤ -4.2
13 | A28G A66C C79U G92U U148C | -3.86
14 | G25U A37G C85A U148C | ≤ -4.2
15 | A20U G58A G81A | -0.836
16 | C38U A89C C93U G124C | -2.94
17 | C5A C85U C95G | -1.93
18 | C38A C57A G83A | -0.895
19 | A22G A30U G65C G136A | ≤ -4.2
20 | G86U A98C U101C | -0.908
21 | C38U U61A | -0.395

Row | Variant | polymerase ribozyme fitness (log ratio)
22 | C93G A121C | -3.39
23 | U6G A47G U53G U55A C76G C85G C103G G128U C129A U145G | ≤ -4.2
24 | C8G G92U | -3.57
25 | A12C U102C A138C | ≤ -4.2
26 | G46A U56A G83U | -2.27
27 | A16U C96A | -2.78
28 | U31C C85G A89G C93U | ≤ -4.2
29 | A64G C76U | -3.62
30 | A49C G70U A97U A107G G128U G136A U139A | ≤ -4.2
31 | A3C G11U C36G A39U A91U C114U U127G U134G G140C | ≤ -4.2
32 | A122C | -0.398
33 | C38U C85U | -0.884
34 | C18G G83U C95U | -2.08
35 | U148A | -2.72
36 | C14A A21C A64G C75U C76G C85U C105U A120U | ≤ -4.2
37 | G50U G92C | -0.0562
38 | C35G G80A A91U C105U | ≤ -4.2
39 | C38A C93U | -1.67
40 | A17U A60C G88C | ≤ -4.2
41 | U15G G81A C118A A119C G133A A138U | ≤ -4.2
42 | A89G G126C | 0.0965

Row | Variant | polymerase ribozyme fitness (log ratio)
43 | C57U A89U U101A C125U G141A U146A | ≤ -4.2
44 | C51A A98U C125G | -0.926
45 | G42A C79U U139A U145A C149G | ≤ -4.2
46 | C8A A37C G59C C75A G92A | ≤ -4.2
47 | A23G C96U | -2.56
48 | A47G G152U | -2.47
49 | U7A C51U | -3.25
50 | U7A C32G U33C C87A C96U U101C C116A U145G U146C | ≤ -4.2
51 | C63A C93U A98C | -1.62
52 | A19U G94A A121U C125G | -0.351
53 | U13G A23C C32U G59U C85G C105G A106U C116G U134A | ≤ -4.2
54 | C10U G46C G124A | ≤ -4.2
55 | A41U G74U C75A A91G U145A U151G | ≤ -4.2
56 | C14A G25U U82G G94U | ≤ -4.2
57 | C57U G58A A60U C69U C76A G88U G141A | ≤ -4.2
58 | U15C U56A C69A G84A G136A | -0.468
59 | U7C C38A | -2.38
60 | G59U G86A | -1.19
61 | C14A A39U A52U C87A C95U C96U G100U C125A | ≤ -4.2
62 | G68A G81U C96A | -3.57
63 | C54U G58A G94U | -0.705

Row | Variant | polymerase ribozyme fitness (log ratio)
64 | A17U A37C U61A C93A C99A C125A U144A | ≤ -4.2
65 | G34C C69G C85G C105A | ≤ -4.2
66 | A41U C99A A107U G117A A122U G128A | ≤ -4.2
67 | A19G C38U C76G C93A C103A G143U | ≤ -4.2
68 | A107U | -3.06
69 | C57G C93U | -1.72
70 | A30C C38G A49C U61A A66C G67C C93G A110U G124C G143A | ≤ -4.2
71 | C14G G80A | -1.72
72 | A28U A64G G68U G83U A121C G143A | ≤ -4.2
73 | G34C C93A A106U | ≤ -4.2
74 | A39C A49U C69U C85A C105U | ≤ -4.2
75 | A73C U127A U144G | ≤ -4.2
76 | U9G A24U C35U A60C G71A G128A G143U A150G | ≤ -4.2
77 | C5A U6G A28U A52C G84C A110G | ≤ -4.2
78 | C87U A91U C96U | ≤ -4.2
79 | U4G A12C U15A G80C U90G G126C G143C | ≤ -4.2
80 | C76A C95U C96A A97G C114U A137C | ≤ -4.2
81 | A24C C79U | ≤ -4.2
82 | U53A A110G | -3.7
83 | A52G C96G C131U | -0.425
84 | U6C C18G A23G C27U A30G C54U C63A G84A C103U | ≤ -4.2
